Results taken from US8895526B2, “Identification of RNAI targets and use of RNAI for rational therapy of chemotherapy-resistant leukemia and other cancers” (Cold Spring Harbor Laboratory, priority 2009, dated 2014).

B1: Map2k1.1200: neutral control shRNA, SEQ ID NO: 203 (nucleic acid)
chain: TGCTGTTGACAGTGAGCGAGCCTCTCAGCTCATATGGAATTAGTGAAGCCACAGATGTAATTCCATATGAGCTGAGAGGCCTGCCTACTGCCTCGGA
B2: Myc.1888: shRNA, SEQ ID NO: 146 (nucleic acid)
chain: TGCTGTTGACAGTGAGCGAGAAACGACGAGAACAGTTGAATAGTGAAGCCACAGATGTATTCAACTGTTCTCGTCGTTTCCTGCCTACTGCCTCGGA
B3: Myc.2105: shRNA, SEQ ID NO: 148 (nucleic acid)
chain: TGCTGTTGACAGTGAGCGCCTGCCTCAAACTTAAATAGTATAGTGAAGCCACAGATGTATACTATTTAAGTTTGAGGCAGTTGCCTACTGCCTCGGA
B4: Pcna.1186: shRNA, SEQ ID NO: 159 (nucleic acid)
chain: TGCTGTTGACAGTGAGCGAATCAATGATCTTGACGCTAAATAGTGAAGCCACAGATGTATTTAGCGTCAAGATCATTGATGTGCCTACTGCCTCGGA
B5: Myc.1891: shRNA, SEQ ID NO: 147 (nucleic acid)
chain: TGCTGTTGACAGTGAGCGCACGACGAGAACAGTTGAAACATAGTGAAGCCACAGATGTATGTTTCAACTGTTCTCGTCGTTTGCCTACTGCCTCGGA
B6: Lin28.2430: neutral control shRNA, SEQ ID NO: 201 (nucleic acid)
chain: TGCTGTTGACAGTGAGCGATGGCCTAGTTGTGTAAATATATAGTGAAGCCACAGATGTATATATTTACACAACTAGGCCACTGCCTACTGCCTCGGA
B7: Bcl2.2169: shRNA, SEQ ID NO: 96 (also SEQ ID NO: 42) (nucleic acid)
chain: TGCTGTTGACAGTGAGCGACAGTAGAAATTATATGCATTATAGTGAAGCCACAGATGTATAATGCATATAATTTCTACTGCTGCCTACTGCCTCGGA
B8: Lin28.2180: neutral control shRNA, SEQ ID NO: 198 (nucleic acid)
chain: TGCTGTTGACAGTGAGCGCAGCGTGATGGTTGATAGCTAATAGTGAAGCCACAGATGTATTAGCTATCAACCATCACGCTATGCCTACTGCCTCGGA
B9: Lin28.2186: neutral control shRNA, SEQ ID NO: 199 (nucleic acid)
chain: TGCTGTTGACAGTGAGCGAATGGTTGATAGCTAAAGGAAATAGTGAAGCCACAGATGTATTTCCTTTAGCTATCAACCATCTGCCTACTGCCTCGGA
B10: Nrg4.1358: shRNA, SEQ ID NO: 153 (nucleic acid)
chain: TGCTGTTGACAGTGAGCGCCAGACATGTTGAAGTGAATAATAGTGAAGCCACAGATGTATTATTCACTTCAACATGTCTGTTGCCTACTGCCTCGGA
B11: Map2k1.2337: neutral control shRNA, SEQ ID NO: 204 (nucleic acid)
chain: TGCTGTTGACAGTGAGCGCCAAGATGTTTATCAAATCTAATAGTGAAGCCACAGATGTATTAGATTTGATAAACATCTTGATGCCTACTGCCTCGGA
B12: Bcl2.906: shRNA, SEQ ID NO: 98 (nucleic acid)
chain: TGCTGTTGACAGTGAGCGCGCACAGGAATTTTGTTTAATATAGTGAAGCCACAGATGTATATTAAACAAAATTCCTGTGCATGCCTACTGCCTCGGA
B13: Ptpn18.247: shRNA, SEQ ID NO: 170 (nucleic acid)
chain: TGCTGTTGACAGTGAGCGCCACGAACAAGAACCGCTACAATAGTGAAGCCACAGATGTATTGTAGCGGTTCTTGTTCGTGTTGCCTACTGCCTCGGA
B14: Kit.4813: neutral control shRNA, SEQ ID NO: 197 (nucleic acid)
chain: TGCTGTTGACAGTGAGCGATTGGATATTCTTGAAAGTTTATAGTGAAGCCACAGATGTATAAACTTTCAAGAATATCCAAGTGCCTACTGCCTCGGA
B15: Pcna.566: shRNA, SEQ ID NO: 160 (nucleic acid)
chain: TGCTGTTGACAGTGAGCGATCGGGTGAATTTGCACGTATATAGTGAAGCCACAGATGTATATACGTGCAAATTCACCCGACTGCCTACTGCCTCGGA
B16: Rpa1.1620: shRNA, SEQ ID NO: 175 (also SEQ ID NO: 57) (nucleic acid)
chain: TGCTGTTGACAGTGAGCGCCCGCATGATCTTATCGGCAAATAGTGAAGCCACAGATGTATTTGCCGATAAGATCATGCGGTTGCCTACTGCCTCGGA
B17: Lin28.2270: neutral control shRNA, SEQ ID NO: 200 (nucleic acid)
chain: TGCTGTTGACAGTGAGCGCAACGGGACAAATGCAATAGAATAGTGAAGCCACAGATGTATTCTATTGCATTTGTCCCGTTTTGCCTACTGCCTCGGA
B18: Myb.2652: shRNA, SEQ ID NO: 144 (also SEQ ID NO: 53) (nucleic acid)
chain: TGCTGTTGACAGTGAGCGCCCCAAGTAATACTTAATGCAATAGTGAAGCCACAGATGTATTGCATTAAGTATTACTTGGGATGCCTACTGCCTCGGA
B19: Kit.2021: neutral control shRNA, SEQ ID NO: 195 (nucleic acid)
chain: TGCTGTTGACAGTGAGCGACACCCTGGTCATTACAGAATATAGTGAAGCCACAGATGTATATTCTGTAATGACCAGGGTGGTGCCTACTGCCTCGGA
B20: Rpa3.561: shRNA, SEQ ID NO: 176 (also SEQ ID NO: 61) (nucleic acid)
chain: TGCTGTTGACAGTGAGCGCAAAAGTGATACTTCAATATATTAGTGAAGCCACAGATGTAATATATTGAAGTATCACTTTTATGCCTACTGCCTCGGA
B21: Mcl1.2018: shRNA, SEQ ID NO: 140 (also SEQ ID NO: 45) (nucleic acid)
chain: TGCTGTTGACAGTGAGCGCGGACTGGTTATAGATTTATAATAGTGAAGCCACAGATGTATTATAAATCTATAACCAGTCCATGCCTACTGCCTCGGA
B22: Cdc42ep3.1922: shRNA, SEQ ID NO: 104 (nucleic acid)
chain: TGCTGTTGACAGTGAGCGCAACAAGCAAGGTATTACTGTATAGTGAAGCCACAGATGTATACAGTAATACCTTGCTTGTTTTGCCTACTGCCTCGGA
B23: Bcl2.1422: shRNA, SEQ ID NO: 95 (also SEQ ID NO: 41) (nucleic acid)
chain: TGCTGTTGACAGTGAGCGACCGGGAGAACAGGGTATGATATAGTGAAGCCACAGATGTATATCATACCCTGTTCTCCCGGCTGCCTACTGCCTCGGA
B24: Luciferase.1309: neutral control shRNA, SEQ ID NO: 202 (nucleic acid)
chain: TGCTGTTGACAGTGAGCGCCCGCCTGAAGTCTCTGATTAATAGTGAAGCCACAGATGTATTAATCAGAGACTTCAGGCGGTTGCCTACTGCCTCGGA
B25: Kit.221: neutral control shRNA, SEQ ID NO: 196 (nucleic acid)
chain: TGCTGTTGACAGTGAGCGCCAGATGGACTTTCAAGACCTATAGTGAAGCCACAGATGTATAGGTCTTGAAAGTCCATCTGATGCCTACTGCCTCGGA
B26: Myb.2572: shRNA, SEQ ID NO: 143 (also SEQ ID NO: 52) (nucleic acid)
chain: TGCTGTTGACAGTGAGCGCTCCATGTATCTCAGTCACTAATAGTGAAGCCACAGATGTATTAGTGACTGAGATACATGGAATGCCTACTGCCTCGGA
B27: Nln.1429: shRNA, SEQ ID NO: 151 (nucleic acid)
chain: TGCTGTTGACAGTGAGCGAAAGGATAAAGCTACTGGAGAATAGTGAAGCCACAGATGTATTCTCCAGTAGCTTTATCCTTCTGCCTACTGCCTCGGA
B28: Mcl1.1334: shRNA, SEQ ID NO: 139 (also SEQ ID NO: 43) (nucleic acid)
chain: TGCTGTTGACAGTGAGCGAAAGAGTCACTGTCTGAATGAATAGTGAAGCCACAGATGTATTCATTCAGACAGTGACTCTTCTGCCTACTGCCTCGGA
B29: Nrp1.479: shRNA, SEQ ID NO: 155 (nucleic acid)
chain: TGCTGTTGACAGTGAGCGCACCCTCATTCTTACCATCCAATAGTGAAGCCACAGATGTATTGGATGGTAAGAATGAGGGTATGCCTACTGCCTCGGA
B30: Rock2.3898: shRNA, SEQ ID NO: 174 (nucleic acid)
chain: TGCTGTTGACAGTGAGCGCCAGATTCTATATGCCAATGAATAGTGAAGCCACAGATGTATTCATTGGCATATAGAATCTGATGCCTACTGCCTCGGA
B31: Myb.670: shRNA, SEQ ID NO: 145 (also SEQ ID NO: 54) (nucleic acid)
chain: TGCTGTTGACAGTGAGCGACACAACCATTTGAATCCAGAATAGTGAAGCCACAGATGTATTCTGGATTCAAATGGTTGTGCTGCCTACTGCCTCGGA

tested on: immortalized murine embryonic fibroblasts (Mef); experiment: Pooled negative selection RNAi screening (deep sequencing); format: cell-based; details: deep sequencing reads, on dox compared to initial representation
Summary of the method: (§1)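 A pool of 1230 tet-regulated shRNAs (TRMPV-type) was retrovirally transduced at mostly single copy and ~1000-fold representation into tet-on MLL/AF9+Nras AML cells or immortalized murine embryonic fibroblasts, then cultured on or off doxycycline. shRNA-expressing cells were FACS-sorted, and shRNA representation was quantified by PCR and deep sequencing of genomic DNA, with depletion on dox compared against t0 and off dox.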

In order of rising “Fold depletion in Mef” value:
1. B13  0.21 Fold
2. B22  0.38 Fold
3. B24  0.52 Fold
4. B10  0.54 Fold
5. B11  0.68 Fold
6. B25  0.69 Fold
7. B8  0.80 Fold
8. B29  0.83 Fold
9. B14  0.84 Fold
10. B6  0.89 Fold
11. B26  0.92 Fold
12. B12  0.98 Fold
13. B30  1.04 Fold
14. B17  1.10 Fold
15. B18  1.14 Fold
16. B1  1.24 Fold
17. B31  1.28 Fold
18. B9  1.55 Fold
19. B19  1.61 Fold
20. B27  1.61 Fold
21. B7  1.62 Fold
22. B23  2.71 Fold
23. B28  3.00 Fold
24. B21  3.02 Fold
25. B2  3.83 Fold
26. B5  4.62 Fold
27. B15  6.15 Fold
28. B16  10.23 Fold
29. B20  10.63 Fold
30. B4  11.42 Fold
31. B3  11.70 Fold

tested on: tet-on competent MLL/AF9+Nras AML; experiment: as above; format: cell-based, mouse; details: deep sequencing reads, On Dox compared to T0
Summary of the method: as §1

In order of falling “Fold depletion in AML” value:
1. B22  315.30 Fold
2. B28  104.03 Fold
3. B26  67.47 Fold
4. B4  51.94 Fold
5. B31  26.46 Fold
6. B18  15.46 Fold
7. B7  12.61 Fold
8. B12  12.28 Fold
9. B21  11.48 Fold
10. B15  9.89 Fold
11. B3  9.19 Fold
12. B5  9.05 Fold
13. B20  8.81 Fold
14. B2  8.48 Fold
15. B29  8.19 Fold
16. B13  8.13 Fold
17. B10  8.11 Fold
18. B30  8.10 Fold
19. B27  8.03 Fold
20. B1  2.26 Fold
21. B19  1.92 Fold
22. B9  1.43 Fold
23. B6  1.37 Fold
24. B24  1.22 Fold
25. B25  1.19 Fold
26. B8  1.15 Fold
27. B14  0.81 Fold
28. B11  0.24 Fold
29. B17  0.22 Fold

B16 was tested, and the “Fold depletion in AML” value was 2,891.47 Fold.
For B23, the “Fold depletion in AML” value was 1,686.19 Fold.
